From patent publication US20230372448A1, “THERAPEUTIC USE OF LONG-ACTING CONJUGATE OF TRIPLE AGONIST ACTING ON ALL OF GLUCAGON, GLP-1 AND GIP RECEPTORS AGAINST MULTIPLE SCLEROSIS” (HANMI PHARM. CO. ,LTD., priority 2020, published 2023) come the findings set out here.

Positions of bridges follow the written chain, without caps; N, C: chain ends. Non-standard residues stand in square brackets, D forms with d. No end group written: not given here. *: point of attachment. Acetyl(2-(4-imidazolyl)) = O=C(Cc1c[nH]cn1)*; Aib = CC(C)(N)C(=O)O A value given as a limit tells only on which side of the number the result lay.

Experiment in all cases: cell-based or functional assay
For one experiment, the target named is human GLP-1 receptor (human, UniProt P43220 24-463).
The next experiment concerns the target human GCG receptor (human, UniProt P47871 26-477).
For another experiment, the target named is T1, human GIP receptor (human, UniProt P48546 22-466).
T1 sequence (looked up): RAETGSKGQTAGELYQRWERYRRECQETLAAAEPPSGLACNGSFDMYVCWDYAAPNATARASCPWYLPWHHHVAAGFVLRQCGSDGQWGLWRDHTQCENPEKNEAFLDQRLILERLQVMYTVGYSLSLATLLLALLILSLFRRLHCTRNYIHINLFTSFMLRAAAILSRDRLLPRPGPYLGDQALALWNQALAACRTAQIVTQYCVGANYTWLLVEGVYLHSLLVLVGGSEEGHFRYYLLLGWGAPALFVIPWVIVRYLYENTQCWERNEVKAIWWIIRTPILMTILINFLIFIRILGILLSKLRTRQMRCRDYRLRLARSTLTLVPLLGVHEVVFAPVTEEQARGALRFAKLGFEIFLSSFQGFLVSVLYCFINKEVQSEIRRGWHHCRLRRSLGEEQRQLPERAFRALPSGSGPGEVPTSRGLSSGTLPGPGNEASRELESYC

Chain of human GCG receptor (P47871 26-477): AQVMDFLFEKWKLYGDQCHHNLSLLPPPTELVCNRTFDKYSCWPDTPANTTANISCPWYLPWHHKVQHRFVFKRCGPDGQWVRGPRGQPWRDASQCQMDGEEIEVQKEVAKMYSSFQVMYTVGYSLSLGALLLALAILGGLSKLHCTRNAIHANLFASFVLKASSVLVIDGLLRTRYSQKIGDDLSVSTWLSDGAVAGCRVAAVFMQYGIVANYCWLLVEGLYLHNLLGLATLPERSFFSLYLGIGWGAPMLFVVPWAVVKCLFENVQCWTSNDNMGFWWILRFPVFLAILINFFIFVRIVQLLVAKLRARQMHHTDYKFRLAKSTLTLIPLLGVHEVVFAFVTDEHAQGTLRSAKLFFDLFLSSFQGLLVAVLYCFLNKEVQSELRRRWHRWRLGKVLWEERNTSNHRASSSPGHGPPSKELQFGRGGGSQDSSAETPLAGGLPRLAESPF

In the case of H[Aib]QGTFTSDYSKYLDGQHAQCFVAWLLAGGGPSSGAPPPS (also: ring from underlined residues, positions not shown) [triple agonist of SEQ ID NO: 39], the “In vitro activity (%) compared with native peptide: vs GLP-1” value (“In vitro activity (%) … vs GLP-1” for short) with human GLP-1 receptor was determined as 13.9%. Further, in the experiment with human GCG receptor, the “In vitro activity (%) compared with native peptide: vs Glucagon” value (“In vitro activity (%) … vs Glucagon” below) stood at 0.53%. Also, the “In vitro activity (%) compared with native peptide: vs GIP” value (shortened to “In vitro activity (%) … vs GIP”) with human GIP receptor was less than 0.1%.
Turning to {Acetyl(2-(4-imidazolyl))}-[Aib]QGTFTSDKSSYLDERAAQDFVQWLLDGGPSSGAPPPSS (not fully specified; also: ring from underlined residues, positions not shown) [triple agonist of SEQ ID NO: 38], the “In vitro activity (%) … vs GLP-1” value with human GLP-1 receptor is 2.3%.
Take H[Aib]QGTFTSDVSSYLLGQQQKEFIAWLVKGC (not fully specified) [triple agonist of SEQ ID NO: 4]: the “In vitro activity (%) … vs GLP-1” value in the experiment with human GLP-1 receptor came out at 8.5%. For the same molecule, in the experiment with human GCG receptor, the “In vitro activity (%) … vs Glucagon” value was less than 0.1%. Moreover, the “In vitro activity (%) … vs GIP” value with human GIP receptor was less than 0.1%.
As for H[Aib]QGTFTSDYSIAMDEIHQKDFVNWLLNTKC (bridge 16-20; not fully specified) [triple agonist of SEQ ID NO: 35], the “In vitro activity (%) … vs GLP-1” value with human GLP-1 receptor stood at 7.5%. Further, the “In vitro activity (%) … vs Glucagon” value with human GCG receptor is less than 0.1%. For the same molecule, the “In vitro activity (%) … vs GIP” value with human GIP receptor turned out to be 1.3%.
Taken in the same sequence, the figures for H[Aib]QGTFTSDYSKYLDECRQKEFVQWLLNGGPSSGAPPPSG (bridge 16-20) [triple agonist of SEQ ID NO: 37] were 236%, 6.21% and 2.2%.
Taken in the same sequence, the figures for H[Aib]QGTFTSDYSKYLCEKRQKEFVQWLLNGGPSSGAPPPSG (bridge 16-20) [triple agonist of SEQ ID NO: 36] were 37.4%, 0.39% and 0.2%.
Taken in the same sequence, the figures for H[Aib]QGTFTSDKSKYLDERACQDFVQWLLDGGPSSGAPPPS (not fully specified) [triple agonist of SEQ ID NO: 40] were 75.2%, less than 0.1% and less than 0.1%.
As to H[Aib]QGTFTSDYSKYLDEKRQKEFVNWLLAQKC (bridge 16-20; not fully specified) [triple agonist of SEQ ID NO: 34], the “In vitro activity (%) … vs GLP-1” value with human GLP-1 receptor came to 19.1%. For the same molecule, the “In vitro activity (%) … vs Glucagon” value with human GCG receptor worked out at 0.92%. Besides, the “In vitro activity (%) … vs GIP” value with human GIP receptor was determined as 0.6%.
Consider H[Aib]QGTFTSDVSSYLDGQAAKEFIAWLVKGC (not fully specified) [triple agonist of SEQ ID NO: 1], for which, in the experiment with human GLP-1 receptor, the “In vitro activity (%) … vs GLP-1” value amounted to 3.2%. Besides, the “In vitro activity (%) … vs Glucagon” value in the experiment with human GCG receptor was less than 0.1%. Also, the “In vitro activity (%) … vs GIP” value with human GIP receptor is less than 0.1%.
For the molecule H[Aib]QGTFTSDKSKYLDECAAQDFVQWLLDGGPSSGAPPPS (not fully specified) [triple agonist of SEQ ID NO: 41], in the experiment with human GLP-1 receptor, the “In vitro activity (%) … vs GLP-1” value was 34.3%. Moreover, in the experiment with human GCG receptor, the “In vitro activity (%) … vs Glucagon” value is less than 0.1%. Moreover, in the experiment with human GIP receptor, the “In vitro activity (%) … vs GIP” value was less than 0.1%.
Take Y[Aib]QGTFTSDYSKYLDEKRAKEFVQWLLDHHPSSGQPPPSC (bridge 16-20; not fully specified) [triple agonist of SEQ ID NO: 42]: the “In vitro activity (%) … vs GLP-1” value with human GLP-1 receptor came to 33.9%. Further, the “In vitro activity (%) … vs Glucagon” value with human GCG receptor was 206%. Further, the “In vitro activity (%) … vs GIP” value with human GIP receptor stood at 7.8%.
